Reference: patent publication US20130323249A1 (published 2013)

B1: H10 anti-PD-L1 antibody (antibody, V domains shown)
VH: EVQLVQSGGGLVQPGGSLRLSCAASGFTFSSYSMNWVRQAPGKGLEWVSYISSSSSTIYYADSVKGRFTISRDNAKNSLYLQMNSLRDEDTAVYYCARGDYYYGMDVWGQGTTVTVSS
VL: EIVLTQSPSSLSASIGDRVTLTCRASQSIRRFLNWYQQKPGKAPELLIYTASSLQSGVPSRFSGSGSGTDFTLTINSLQPEDFATYYCQQSYAVSPYTFGQGTKVEIR
B2: H6 anti-PD-L1 antibody (antibody, V domains shown)
VH: QMQLVQSGAEVKKPGSSVKVSCKASGGTFSSYAISWVRQAPGQGLEWMGGIIPIFGTANYAQKFQGRVTITADESTSTAYMELSSLRSEDTAVYYCARGNIVATITPLDYWGQGTLVTVSS
VL: SYELMQPPSVSVAPGKTATIACGGENIGRKTVHWYQQKPGQAPVLVIYYDSDRPSGIPERFSGSNSGNTATLTISRVEAGDEADYYCQVWDSSSDHRIFGGGTKLTVL

Biological target: human PD-L1 expressed on the surface of cells (human, UniProt Q9NZQ7 19-290)
Sequence (Q9NZQ7 19-290): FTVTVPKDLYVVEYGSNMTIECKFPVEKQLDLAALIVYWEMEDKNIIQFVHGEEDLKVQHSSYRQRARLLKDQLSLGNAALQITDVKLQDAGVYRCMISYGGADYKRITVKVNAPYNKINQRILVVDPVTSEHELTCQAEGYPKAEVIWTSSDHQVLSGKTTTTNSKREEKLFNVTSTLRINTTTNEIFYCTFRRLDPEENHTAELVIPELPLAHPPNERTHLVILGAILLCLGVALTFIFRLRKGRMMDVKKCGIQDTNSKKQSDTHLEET
Assay: FACS binding to human lymphocytes

| EC50 [µg/mL] | Binder |
| --- | --- |
| 0.021 | B1 |
| 0.03 | B2 |
